Source: patent publication US20210002376A1
Read-outs that look alike come from different tables or passages of the source.

How the values were obtained:
DR5-Fc fusion protein [1] = target: DR5-Fc fusion protein (UniProt O14763); experiment: ELISA, coated DR5-Fc, anti-human Fab-HRP
DR5-Fc fusion protein [2] = target: DR5-Fc fusion protein (UniProt O14763); experiment: ELISA, coated DR5-Fc, anti-human Fab-HRP; remark: listed apart in the source

Drozitumab (antibody) showed an EC50 (DR5-Fc fusion protein [1]) of 1.2 nM and an EC50 (DR5-Fc fusion protein [2]) of 1.4 nM.
